This is an account of results in US20190345557.

Numbering of substitutions follows the chain as printed.

In the data set the target is Human RhoG (residues 1-188) with N-terminal His-SUMO tag, pre-loaded with GDP, P84095.
Sequence of Human RhoG (residues 1-188) with N-terminal His-SUMO tag, pre-loaded with GDP, P84095 (P84095 1-188): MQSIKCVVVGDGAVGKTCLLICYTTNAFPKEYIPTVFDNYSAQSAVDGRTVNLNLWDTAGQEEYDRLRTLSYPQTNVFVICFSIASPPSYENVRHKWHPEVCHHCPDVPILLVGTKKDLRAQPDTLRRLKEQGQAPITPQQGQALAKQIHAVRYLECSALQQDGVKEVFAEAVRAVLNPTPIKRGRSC

B1: Human full-length ARHGEF26 (wild-type) with N-terminal His-SUMO tag (protein)
chain: MDGESEVDFSSNSITPLWRRRSIPQPHQVLGRSKPRPQSYQSPNGLLITDFPVEDGGTLLAAQIPAQVPTASDSRTVHRSPLLLGAQRRAVANGGTASPEYRAASPRLRRPKSPKLPKAVPGGSPKSPANGAVTLPAPPPPPVLRPPRTPNAPAPCTPEEDLTGLTASPVPSPTANGLAANNDSPGSGSQSGRKAKDPERGLFPGPQKSSSEQKLPLQRLPSQENELLENPSVVLSTNSPAALKVGKQQIIPKSLASEIKISKSNNQNVEPHKRLLKVRSMVEGLGGPLGHAGEESEVDNDVDSPGSLRRGLRSTSYRRAVVSGFDFDSPTSSKKKNRMSQPVLKVVMEDKEKFSSLGRIKKKMLKGQGTFDGEENAVLYQNYKEKALDIDSDEESEPKEQKSDEKIVIHHKPLRSTWSQLSAVKRKGLSQTVSQEERKRQEAIFEVISSEHSYLLSLEILIRMFKNSKELSDTMTKTERHHLFSNITDVCEASKKFFIELEARHQNNIFIDDISDIVEKHTASTFDPYVKYCTNEVYQQRTLQKLLATNPSFKEVLSRIESHEDCRNLPMISFLILPMQRVTRLPLLMDTICQKTPKDSPKYEVCKRALKEVSKLVRLCNEGARKMERTEMMYTINSQLEFKIKPFPLVSSSRWLVKRGELTAYVEDTVLFSRRTSKQQVYFFLFNDVLIITKKKSEESYNVNDYSLRDQLLVESCDNEELNSSPGKNSSTMLYSRQSSASHLFTLTVLSNHANEKVEMLLGAETQSERARWITALGHSSGKPPADRTSLTQVEIVRSFTAKQPDELSLQVADVVLIYQRVSDGWYEGERLRDGERGWFPMECAKEITCQATIDKNVERMGRLLGLETNV
B1: the “nucleotide exchange activity (GTP-GDP nucleotide exchange assay, MANT-GTP fluorescence, 60 minutes)” value is “we observed no significant difference in nucleotide exchange activity between wild-type and 29Leu mutant ARHGEF26”.

B2: Human full-length ARHGEF26 29Leu mutant (p.Val29Leu) with N-terminal His-SUMO tag (protein)
chain: B1 chain with V29L
Consider B2, for which the “nucleotide exchange activity (GTP-GDP nucleotide exchange assay, MANT-GTP fluorescence, 60 minutes)” value is “we observed no significant difference in nucleotide exchange activity between wild-type and 29Leu mutant ARHGEF26”.
